Like-named read-outs stand apart in the source and are kept apart here.
How the values were obtained:
[1] = Isoelectric point (IEF gel); format: physicochemical; details: FIG. 33
[2] = Photolysis of G2PEA-insulin dissolved in DMSO, analyzed by gel; format: physicochemical; details: over the irradiation time period, FIG. 35
Source text: The lower band is insulin.

[3] = Solubility of non-polar-tag insulin conjugates vs insulin (shaken with PBS pH 7.2, supernatant analyzed)
Procedure: (§1) Diazo was allowed to react for 24 hours. Reaction progress may be monitored on HPLC with a C18 column.
It was hypothesized solubility would be further lowered by the Val-Val-Val peptide being allowed to pack more efficiently than in the Val-Pro-Ile peptide.

[4] = Photolysis release of insulin from conjugate vs irradiation time; format: physicochemical
Procedure: as §1

[5] = stated in description, no experiment; cited from earlier work
[6] = Quantitative solubility of G2PEA-insulin and insulin in buffer at pH 7.2 and pH 5.4

Substance: G2PEA-insulin drug conjugate: drug conjugate of insulin and glutamic acid condensed with two 1-(2-Aminoethyl)pyrrolidine moieties (G2PEA), photocleavable link
- isoelectric point [1]: ~7
- conversion to insulin upon irradiation [2]: all of the G2PEA insulin is consumed, and insulin is released

Substance: CD-insulin: drug conjugate of insulin and a cyclododecyl amine non-polar moiety joined by a DMNPE-type photocleavable group
- Solubility mM ([3]; Table 3): 0.009 mM
- Solubility mg/ml ([3]; Table 3): 0.06 mg/mL
- Solubility mM ([3]; Table 5): 0.009 mM
- Solubility mg/ml ([3]; Table 5): 0.06 mg/mL
- photolysis release rate constant k ([4]; FIG. 7, insulin released into solution v. irradiation time): 0.154 min-
- photolysis release rate constant k ([4]; fit B=A0(1−exp(−kt)), FIG. 19): 0.154 min⁻¹

Substance: insulin [reference compound]
- Solubility mM ([3]; Table 3): 0.708 mM
- Solubility mg/ml ([3]; Table 3): 4.11 mg/mL
- Solubility mM ([3]; Table 5): 0.708 mM
- Solubility mg/ml ([3]; Table 5): 4.11 mg/mL
- isoelectric point [5]: ~5.4
- Solubility ([6]; Table 7, pH 7.2 buffer): 1053.3 ± 158.1 µM
- Solubility ([6]; Table 8, pH 5.4): 17.1 ± 2.1 µM

— US20200147215A1, “DRUG CONJUGATES WITH PHOTOCLEAVABLE SOLUBILITY MODULATORS” (priority 2017, published 2020)
